Experimental data as given in patent US20200040057A1 (IMMATICS BIOTECHNOLOGIES, published 2020).

target: HLA-B*07 (human); test: UV peptide exchange ELISA; ++++ = yield >75%

Row | Binder | peptide exchange yield [%]
1 | RPPLSQRHTF | > 75
2 | GPRQVLFPL | > 75
3 | LPVSSPVTL | > 75
4 | VPVSHPVL | > 75
5 | LPGEREAAL | > 75
6 | SPDPAHLESL | > 75
7 | FPRLVGPDFF | > 75
8 | RPKHFLQML | > 75
9 | RPNGEVKSEL | > 75
10 | MPHLGPGILL | > 75
11 | VPVSRPVL | > 75
12 | APLRVHITSL | > 75
13 | APKFISPASQL | > 75
14 | SPVFYVQTL | > 75
15 | APALPGQVTI | > 75
16 | VPKADLLTL | > 75
17 | MPLLADVRL | > 75
18 | QPRLVPGETL | > 75
19 | NPASRLTAL | > 75
20 | SPSFSSTLLSL | > 75
21 | LPALLRSGLTL | > 75
22 | SPAPWRPWI | > 75
23 | VPILPLNHAL | > 75
24 | RPRQTGALM | > 75

Row | Binder | peptide exchange yield [%]
25 | RPYSIYPHGVTF | > 75
26 | KPRTPFTTAQL | > 75
27 | LPMTVISVL | > 75
28 | APTPRPKVL | > 75
29 | QPVKKNTL | > 75
30 | APHAGGALL | > 75
31 | APLKMLAL | > 75
32 | RPKTSVNLISSL | > 75
33 | IPWFIKTAF | > 75
34 | VPAQRLGLL | > 75
35 | SVAIAHGVF | > 75
36 | VPIPTHYFVVL | > 75
37 | VPRNQDWLGVSRQL | > 75
38 | SPMEAILVSRL | > 75
39 | SPSSASLTL | > 75
40 | QPSLKKIIL | > 75
41 | VPKSLPYVL | > 75
42 | FPNVYSTLVL | > 75
43 | APMAPGRSPL | > 75
44 | KPKVESQAL | > 75
45 | APLMPLGKTL | > 75
46 | SPRIPFSTF | > 75
47 | SPYPGSAAF | > 75
48 | RPGPQRTTSV | > 75

Row | Binder | peptide exchange yield [%]
49 | RPYGCVLRAA | > 75
50 | FPQVGRTAL | > 75
51 | LPRGVLEGL | > 75
52 | SPSYTQASL | > 75
53 | WPNHIMLVL | > 75
54 | RPSFPNLTSF | > 75
55 | KPRTIYSSL | > 75
56 | NPVPVITWYKDNRL | > 75
57 | LPAPTSLVL | > 75
58 | MPAGGGPRSL | > 75
59 | APRGPAQGEAA | > 75
60 | LPSLHVLVL | > 75
61 | SPRQPRLDF | > 75
62 | RPQPQPRPAL | > 75
63 | SPTLRQLDL | > 75
64 | FPVQATIDF | > 75
65 | QPVLPSPAC | > 75
66 | LPLDTRTSI | > 75
67 | KPRNMTGLDL | > 75
68 | SPSQTVQRAV | > 75
69 | LPTDLFNSVM | > 75
70 | APQVHIFSL | > 75
71 | FPRTVKHIDAAL | > 75

target: HLA-B*07 (human); test: UV peptide exchange ELISA; +++ = yield >50

Row | Binder | peptide exchange yield [%]
72 | RPLPNSVIHV | 50 to 75
73 | APRGSPPI | 50 to 75
74 | APFHIDRLF | 50 to 75
